Data published in the supplement of paper PMC12042874.
± gives the uncertainty stated by the source.

test: amyloid nucleation score (Sup35N fusion, yeast selection) (log enrichment); library NNK3; higher = more nucleation; inactive = no reads after selection
Outline: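 Nucleation score: DiMSum log enrichment of output over input reads, centred on the mode score of non-aggregating sequences. Only sequences with at least 100 input reads were kept. Reads came from Illumina sequencing of plasmid inserts before and after 7 days of growth at 30°C without adenine and uracil, in psi-negative yeast expressing Sup35N fused to peptides of 20 random codons after 24 hours of induction with 100 μM copper sulfate.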

| Substance | amyloid nucleation score |
| --- | --- |
| SMTHRPTAVHSDVHGQCVKW | inactive |
| SNAHMCVRRTAWKNI | inactive |
| SNCFRILYTCAVAQLPPCMR | inactive |
| SNCSSWSSPV | inactive |
| SNEHAVVYS | inactive |
| SNGELTVEHQGLQPLGEKRT | inactive |
| SNGHFAVGDDPEK | inactive |
| SNGKVTLYKRLRDTSPQGIY | inactive |
| SNGVRSRLLE | inactive |
| SNGWFYFCFVSWWHSSFDGS | inactive |
| SNHITRFQLESQTIPIISFV | inactive |
| SNILAA | inactive |
| SNITAVYAVVTNIRWLYVRT | inactive |
| SNLRFFVAFLQGRSLN | 0.959 ± 0.23 |
| SNSRNSTGVVQMTRIPKMMR | inactive |
| SNTCHLINAKVDPVHERMLS | 0.176 ± 0.85 |
| SNVEYCLYARLYLGCGVCHP | 0.176 ± 0.42 |
| SNVVSSI | inactive |
| SNYCCRVSFVIKLLRMVYNF | 2.42 ± 0.08 |
| SNYWNWGRGYVCSRFRELVI | inactive |
| SPDHLGRLLY | inactive |
| SPFEFRCIVESEFCMKNWAG | 0.866 ± 0.25 |
| SPRQHARCRTLTLTRTLRPM | inactive |
| SQASLFFSGWWILFTYMLGW | inactive |
| SQFTIVVTAVLVT | inactive |
| SQLCITNSRW | inactive |
| SQLQVISKIENSRKVIQRSS | inactive |

| Substance | amyloid nucleation score |
| --- | --- |
| SQLVVLCCCRSPSFYCGVL | 1.32 ± 0.17 |
| SQVGWG | inactive |
| SQYTRCSVYIVW | 1.43 ± 0.079 |
| SRCFNSGTYPEICVHRVLKV | inactive |
| SRCRMIGMVISWNG | inactive |
| SRDFVKYISEERS | inactive |
| SREFSGCNNV | inactive |
| SRFLKCF | inactive |
| SRFQWLWKMCSNDG | inactive |
| SRFYSDTQPTCGWKRVESRG | -0.897 ± 2.5 |
| SRHRNYHFCRILQCGFERSW | -0.526 ± 0.93 |
| SRIKD | inactive |
| SRKCWAHKSIDVEVATSSAK | inactive |
| SRKIFEGTIRIRLTDSASFS | inactive |
| SRLDALLMKLCFVICLRILK | inactive |
| SRNPEAEHRIIMRAQSTGYF | inactive |
| SRSSWGPSAIPYYKKLFMLF | inactive |
| SRTVKSRGSAQQDCGRVLRD | inactive |
| SRVILL | inactive |
| SRYMNRR | inactive |
| SSACYTVLPGKAPTPAYPLL | inactive |
| SSARYPAGLIVLHWLGCLKA | inactive |
| SSCRTRC | -0.405 ± 0.76 |
| SSDGFCLVIVYVCPSWYMLV | inactive |
| SSDSKGFHGFGWFFWISLVT | inactive |
| SSEHFGCEASGVAER | inactive |
| SSFFRMLVLIVMRCQDTSNR | inactive |

| Substance | amyloid nucleation score |
| --- | --- |
| SSFSFYYDFIHS | -0.433 ± 0.88 |
| SSGNMCFYPAPGYYWIATSK | inactive |
| SSIGCPYLSYDYCFPTMWIW | inactive |
| SSIGFLRSLGHQRPRSVSLP | inactive |
| SSLLKFDFPVLPCHDLRLAL | inactive |
| SSLRR | inactive |
| SSLVL | inactive |
| SSMWCMDRSLYTNYEYQRVL | 0.054 ± 0.36 |
| SSNRGFIIMFEFLASWGFLA | inactive |
| SSSNLLKPSYFCKGSRGASQ | inactive |
| SSSRMFSSLFSVCIWVDTII | inactive |
| SSSTGAFGDSGGR | inactive |
| SSSVCRSLSPLILSHKRYYS | inactive |
| SSTTE | inactive |
| SSVRRYHKLIKRRDYVAFNV | inactive |
| SSWADYSKPYSGFCQGYRVY | inactive |
| SSWYSRAPWLRVEMRRKWYM | 0.025 ± 0.61 |
| STELYVNLDQVSPYSVRQLT | inactive |
| STFSYSPVACWCFGGISQVG | -0.797 ± 2.5 |
| STHFRCELQRICF | inactive |
| STIKFTGFVYFSN | inactive |
| STIVL | inactive |
| STLLRDEML | inactive |
| STPSTQDFVKQSLEARVLSS | inactive |
| STQCFDELMYA | inactive |
